Data: the supplement of paper PMC9170038

Tested on: K4 kissing-loop RNA reporter
Assay: apparent KD of K4 kissing-loop reporter; higher = weaker reporter binding
Settings: Eterna round: R107
Protocol: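 RNA-MaP round R107: designed RNA switches with theophylline, tryptophan, arginine or FMN aptamers are transcribed on-chip within common flanks. They are titrated with a labelled K4 kissing-loop RNA reporter in RNA-MaP buffer (100 mM Tris pH 7.5, 80 mM KCl, 4 mM MgCl2), without ligand or with the indicated ligand. Median apparent KD per design.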

[1] = input ligand: theophylline 20 uM
[2] = input ligand: tryptophan 2.4 mM
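Also: bound reporter read as fluorescence of individual clusters on recovered sequencing chips by microscopy, with normalized cluster intensities fitted with a binding model.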

Row | Sequence | apparent KD of K4 kissing-loop reporter (input ligand: FMN 200 uM) [nM] | apparent KD of K4 kissing-loop reporter (input ligand: arginine 13.2 mM) [nM] | apparent KD of K4 kissing-loop reporter (input ligand: none) [nM] | apparent KD of K4 kissing-loop reporter [1] [nM] | apparent KD of K4 kissing-loop reporter [2] [nM]
1 | AAGUGAUGUUGUAGUGAUGUUGUGAUGUUGCAGGAUAUAUAGUGAUGUAGAAGGGUAUGUACUUAUUUUUUAUUUGAGUUAUGUU [mmvmmullin] | 72.1 | 29.8 | 56.1 | 43.9 | 57.2
2 | AAGUGAUGUUGUAGUGAUGUUGUGAUGUUGCAGGAUAUAUAGUGAUGUAGAAGGGUAUGUGCAGUGUUGUUGUUUGAGUGUUCAU [dttyumullin] | 95.4 | 41.8 | 73.7 | 74.7 | 68.4
3 | AAGUGAUGUUGUAGUGAUGUUGUGAUGUUGCAGGAUAUAUAGUGAUGUAGAAGGGUAUGUGCAGUGUUGUUGUUUGAGUGUUGAU [twwumullin] | 90.3 | 43.2 | 74.7 | 68.6 | 68.7
4 | AAGUGAUGUUGUAGUGAUGUUGUGAUGUUGCAGGAUAUAUAGUGAUGUAGAAGGGUAUGUGCAGUUUUCUUAUUUGAGUGUUGAU [zwzamullin] | 75.9 | 33.2 | 62.6 | 49.5 | 61.3
5 | AAGUGUCAUUAGACACAGACUACAAUAAACUAGGAUAUGCUGAUAAGCAGAAGGAGUGAUGUUCCUUUCAAGUAGUCAAUUAAAU [FmnAX 20 Mat Inspired #SwitchBubble #StaticStem #K4Late] | 243 | 120 | 106 | 128 | 97.6
6 | AAGUGUGUGGCGGCCGCCACUAGAAUCCAGUGAUGUUGGAGAUAUCAUGUAAAUGAUAUCCAACAUAGGACCGGGCCAUAUAGAA [Same State - Tryptophan B (Freestyle 10)] | 126 | 98 | 92.4 | 131 | 120
7 | AAGUGUGUGGCGGCCGCCACUAGAAUCCAGUGAUGUUGGAGUUAUCAGAUAAAUGAUAAUCAACAUAGGACCGGGCCAUAUAGAA [Same State - Tryptophan B (Freestyle 5)] | 703 | 689 | 455 | 630 | 425
8 | AAGUGUUCUAGUGAUACCAGACAUUUCUAUUUUAUCUUUAUAGCUAAGUGAUGUUUAGCAGUCCCUUGGCAGCACUAUUUCACUA [JR_SSTheophyB_Sub017] | 123 | 155 | 137 | 160 | 147
9 | AAUAAAAUCACGGCCGCCACUGAUGCUAAUAUUAGCAGUGAUGUUGCUAUGUAGAUUUUAUUUAACAGGACCGGGUGAAUAUUUA [JR_SSTryptoB_Sub025] | 198 | 124 | 162 | 170 | 269
10 | AAUAAAAUCACGGCCGCCACUGAUUUCCAUAUUAGGAGUGAUGUUCCUAUGACUAUAUAAUUUAACAGGACCGGGUGAAUAUUUA [JR_ExcTryptoB_Sub012] | 110 | 112 | 108 | 111 | 93.5
11 | AAUAACUUGCAGUGAUGUUGCAAGAAAGCUCAGGAUAUCAGGAAACUGAGAAGGGAGCAUCCUGAGCAAACAUCACAACUUAGGA [[K1]-[K2]-[F1]-[F2]-[F]'-[K]'-[F]''_Design2] | 368 | 295 | 406 | 448 | 361
12 | AAUAAGGUCGCCGAUACCAGCGCAGGCAGAGCAAAGCUCUGCCGGGUAGUGAUGUUACCGCGCCCUUGGCAGCGGUGGCACGACC [Omei KL Theo B SS C v1] | 579 | 435 | 340 | 398 | 275
13 | AAUAAUAGUUGAGCAGGCGUGGUCUGAGAUACCAGUGAUUUCGAUCACCCUUGGCAGCUCAGCAUGAGUGAUGUUCAUGCUAUUC [Theo A Ex t10] | 147 | 114 | 134 | 145 | 131
14 | AAUAAUGAUGUUUAGGAAAGUAAAAUGGAAGGAGCGUGCGAAAGCACAGGUAGGUCGCCAGUGAUGUUGGAACCUGAGCAUCAAA [#SwitchBubble 19 #K4Late] | 907 | 633 | 836 | 925 | 757
15 | AAUACGAAGCAGUGAUGUUGCUUAUGAGAAGGAGCGCACGAAAGUGCAGGUAGGUCGCUCAGCCAUGUGGACGAAAACGUCCACA [whbob_SS_Arginine_A_sa109] | 83.3 | 102 | 89.2 | 102 | 80.5
16 | AAUACUAUCAGAAGGAGCGUGGAAUAUUCAUCUGUAUCUAAUACGAGUGAUGUUCGUAAUUCACAGGUAGGUCGCUGAUCAAUAA [whbob_Ex_Arginine_B_2th156] | 246 | 249 | 267 | 269 | 213
17 | AAUACUAUCAGAAGGAGCGUGGAAUAUUCAUCUGUAUCUAAUACGAGUGAUGUUCGUAAUUCACAGGUAGGUCGCUGAUUAAUAC [whbob_Ex_Arginine_B_2th158] | 265 | 245 | 288 | 304 | 245
18 | AAUAGGGAGUGAUGUUCCCUCACUUAUGAUACCAGUGCCAUCGGACACCCUUGGCAGCAUACGGGCAGUGAUGUUGUUCUUGGAA [Exclusion Theophylline A GF 25] | 129 | 148 | 156 | 155 | 119
19 | AAUAUAAAGUCGGCCGCCACUGGAUUUAUAUUUGUUAAAUCUGGAUCAAAGUGAUGUUUUGAGUCCAGGACCGGGACAAUUGUUA [JR_ExcTryptoB_Sub001] | 123 | 117 | 120 | 122 | 203
20 | AAUAUAGUGAUGUUAUAUAAGAAGGAGUUACGAGGACCGGUACGGCCGCCACUCGAAACGAGUGAGGGCUUGGGAGAUUGGGCCC [SSTryptA.I] | 404 | 346 | 444 | 377 | 264
21 | AAUCCUAACGGAGUGAUGUUCCGUAGCGAUACCAGCCAUUGCGAUGGCCCUUGGCAGCGCUAUAAGCAUUGCUAGUAAGGGCCAA [Theo A Ex t7] | 167 | 148 | 168 | 163 | 159
